Patent publication US20250361296A1 (BIOCYTOGEN PHARMACEUTICALS BEIJING, published 2025)

Key:
Assay in all cases: flow cytometry, CHO-S cells expressing the target; as to Percentage of Positive Cells: test concentration or dose not given here
[1] = target: human SIGLEC1 on CHO-S-hSIGLEC1 cells (human, UniProt Q9BZZ2 20-1641)
Method: (§1) CHO-S-hSIGLEC15 cells, CHO-S-mSIGLEC15 cells, CHO-S-fasSIGLEC15 cells or CHO-S-dSIGLEC15 cells were transferred to a 96-well plate at a density of 5×10⁴ cells/well respectively. Serially diluted sample anti-SIGLEC15 antibodies were added to the 96-well plate, and incubated at 4° C. for 30 min. Then, the cells were incubated with the secondary antibody anti-hIgG-Fc-Alex Flour 647 (RL1-H) (Jackson ImmunoResearch Laboratories, Inc., 109-606-170) at 4° C. in the dark for 15 minutes before flow cytometry analysis.
(§2) Another similar experiment was performed to determine whether the anti-SIGLEC15 antibodies can bind with other SIGLEC family proteins. CHO-S-hSIGLEC1 cells (expressing hSIGLEC1, SEQ ID NO: 49)), CHO-S-hSIGLEC2 cells (expressing hSIGLEC2, SEQ ID NO: 50), CHO-S-hSIGLEC4 cells (expressing hSIGLEC4, SEQ ID NO: 51), CHO-S-hSIGLEC5 cells (expressing hSIGLEC5, SEQ ID NO: 52), CHO-S-hSIGLEC6 cells (expressing hSIGLEC6, SEQ ID NO: 53), CHO-S-hSIGLEC7 cells (expressing hSIGLEC7, SEQ ID NO: 54), CHO-S-hSIGLEC8 cells (expressing hSIGLEC8, SEQ ID NO: 55), CHO-S-hSIGLEC9 cells (expressing hSIGLEC9, SEQ ID NO: 56), CHO-S-hSIGLEC10 cells (expressing hSIGLEC10, SEQ ID NO: 57), CHO-S-hSIGLEC11 cells (expressing hSIGLEC11, SEQ ID NO: 58), CHO-S-hSIGLEC12 cells (expressing hSIGLEC12, SEQ ID NO: 59), CHO-S-hSIGLEC14 cells (expressing hSIGLEC14, SEQ ID NO: 60) or CHO-S-hSIGLEC16 cells (expressing hSIGLEC16, SEQ ID NO: 61) were used.

[2] = target: T1, human SIGLEC5 on CHO-S-hSIGLEC5 cells (human, UniProt O15389 17-441)
T1 sequence: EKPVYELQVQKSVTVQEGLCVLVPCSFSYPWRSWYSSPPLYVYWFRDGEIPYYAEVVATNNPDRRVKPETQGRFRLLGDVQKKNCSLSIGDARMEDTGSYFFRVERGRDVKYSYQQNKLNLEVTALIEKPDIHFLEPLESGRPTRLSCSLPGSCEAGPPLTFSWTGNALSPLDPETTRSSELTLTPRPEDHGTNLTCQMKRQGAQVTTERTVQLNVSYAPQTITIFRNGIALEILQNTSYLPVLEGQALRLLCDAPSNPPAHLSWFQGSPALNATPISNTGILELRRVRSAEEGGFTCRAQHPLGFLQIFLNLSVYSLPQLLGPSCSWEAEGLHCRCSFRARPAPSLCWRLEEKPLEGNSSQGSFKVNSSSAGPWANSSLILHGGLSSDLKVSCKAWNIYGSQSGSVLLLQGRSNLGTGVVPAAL
Method: as §1, §2

[3] = target: human SIGLEC7 on CHO-S-hSIGLEC7 cells (human, UniProt Q9Y286 19-353)
Sequence of human SIGLEC7 on CHO-S-hSIGLEC7 cells (Q9Y286 19-353): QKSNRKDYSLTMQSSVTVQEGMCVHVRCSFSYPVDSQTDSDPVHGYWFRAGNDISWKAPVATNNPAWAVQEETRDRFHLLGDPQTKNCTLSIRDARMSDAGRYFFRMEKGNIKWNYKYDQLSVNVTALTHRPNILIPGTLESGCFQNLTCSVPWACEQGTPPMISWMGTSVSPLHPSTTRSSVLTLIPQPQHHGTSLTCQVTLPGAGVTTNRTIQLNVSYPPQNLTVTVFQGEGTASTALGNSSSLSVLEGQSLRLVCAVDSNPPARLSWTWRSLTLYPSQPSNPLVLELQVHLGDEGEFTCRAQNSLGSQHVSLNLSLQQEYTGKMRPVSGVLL
Method: as §1, §2

[4] = target: human SIGLEC8 on CHO-S-hSIGLEC8 cells (human, UniProt Q9NYZ4 17-363)
Sequence of human SIGLEC8 on CHO-S-hSIGLEC8 cells (Q9NYZ4 17-363): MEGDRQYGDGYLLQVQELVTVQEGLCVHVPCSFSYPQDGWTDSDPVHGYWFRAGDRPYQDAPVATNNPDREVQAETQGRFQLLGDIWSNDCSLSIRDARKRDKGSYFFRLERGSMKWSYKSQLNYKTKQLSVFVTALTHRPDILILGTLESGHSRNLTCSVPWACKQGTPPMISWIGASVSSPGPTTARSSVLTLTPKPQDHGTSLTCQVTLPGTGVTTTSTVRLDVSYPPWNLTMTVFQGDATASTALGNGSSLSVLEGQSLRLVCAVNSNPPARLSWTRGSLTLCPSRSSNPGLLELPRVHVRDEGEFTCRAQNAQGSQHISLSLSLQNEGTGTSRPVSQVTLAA
Method: as §1, §2

[5] = target: T2, human SIGLEC10 on CHO-S-hSIGLEC10 cells (human, UniProt Q96LC7 17-550)
T2 sequence: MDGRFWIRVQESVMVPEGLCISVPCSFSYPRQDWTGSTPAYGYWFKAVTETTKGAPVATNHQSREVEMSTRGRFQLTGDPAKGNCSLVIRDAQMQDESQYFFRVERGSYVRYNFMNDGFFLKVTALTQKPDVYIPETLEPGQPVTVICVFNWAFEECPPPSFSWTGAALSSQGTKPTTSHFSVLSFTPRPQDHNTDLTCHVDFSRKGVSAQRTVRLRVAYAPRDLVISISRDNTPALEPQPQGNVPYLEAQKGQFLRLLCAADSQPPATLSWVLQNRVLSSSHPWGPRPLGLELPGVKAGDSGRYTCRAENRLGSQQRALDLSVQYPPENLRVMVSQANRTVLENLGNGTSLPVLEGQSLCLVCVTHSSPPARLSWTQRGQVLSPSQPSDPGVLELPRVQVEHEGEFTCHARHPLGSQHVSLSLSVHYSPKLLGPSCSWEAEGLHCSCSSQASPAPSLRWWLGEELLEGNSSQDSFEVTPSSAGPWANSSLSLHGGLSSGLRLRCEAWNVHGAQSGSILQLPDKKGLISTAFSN
Method: as §1, §2

[6] = target: human SIGLEC12 on CHO-S-hSIGLEC12 cells (human, UniProt Q96PQ1 19-481)
Sequence of human SIGLEC12 on CHO-S-hSIGLEC12 cells (Q96PQ1 19-481): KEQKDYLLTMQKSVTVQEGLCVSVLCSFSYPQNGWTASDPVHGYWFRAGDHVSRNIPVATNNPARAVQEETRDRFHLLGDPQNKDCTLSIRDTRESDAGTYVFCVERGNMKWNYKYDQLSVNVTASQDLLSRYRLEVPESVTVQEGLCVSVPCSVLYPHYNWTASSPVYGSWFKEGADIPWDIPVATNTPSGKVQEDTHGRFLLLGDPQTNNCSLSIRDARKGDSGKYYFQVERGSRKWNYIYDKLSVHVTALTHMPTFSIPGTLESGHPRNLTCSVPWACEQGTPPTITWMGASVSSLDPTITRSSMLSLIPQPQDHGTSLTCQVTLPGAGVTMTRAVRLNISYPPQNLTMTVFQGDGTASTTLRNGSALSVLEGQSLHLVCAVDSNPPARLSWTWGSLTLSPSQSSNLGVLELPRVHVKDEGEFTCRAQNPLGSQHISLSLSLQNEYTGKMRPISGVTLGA
Method: as §1, §2

[7] = target: T3, human SIGLEC14 on CHO-S-hSIGLEC14 cells (human, UniProt Q08ET2 17-358)
T3 sequence: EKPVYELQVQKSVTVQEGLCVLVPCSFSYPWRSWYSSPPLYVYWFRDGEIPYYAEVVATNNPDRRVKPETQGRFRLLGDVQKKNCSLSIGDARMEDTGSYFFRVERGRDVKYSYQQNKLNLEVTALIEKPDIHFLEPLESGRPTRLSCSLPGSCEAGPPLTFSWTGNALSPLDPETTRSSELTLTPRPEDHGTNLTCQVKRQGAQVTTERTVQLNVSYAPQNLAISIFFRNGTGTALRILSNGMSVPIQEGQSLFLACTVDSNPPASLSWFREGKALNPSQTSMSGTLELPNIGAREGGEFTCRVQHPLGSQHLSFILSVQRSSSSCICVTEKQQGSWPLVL
Method: as §1, §2

Sequence of human SIGLEC1 on CHO-S-hSIGLEC1 cells (Q9BZZ2 20-1641): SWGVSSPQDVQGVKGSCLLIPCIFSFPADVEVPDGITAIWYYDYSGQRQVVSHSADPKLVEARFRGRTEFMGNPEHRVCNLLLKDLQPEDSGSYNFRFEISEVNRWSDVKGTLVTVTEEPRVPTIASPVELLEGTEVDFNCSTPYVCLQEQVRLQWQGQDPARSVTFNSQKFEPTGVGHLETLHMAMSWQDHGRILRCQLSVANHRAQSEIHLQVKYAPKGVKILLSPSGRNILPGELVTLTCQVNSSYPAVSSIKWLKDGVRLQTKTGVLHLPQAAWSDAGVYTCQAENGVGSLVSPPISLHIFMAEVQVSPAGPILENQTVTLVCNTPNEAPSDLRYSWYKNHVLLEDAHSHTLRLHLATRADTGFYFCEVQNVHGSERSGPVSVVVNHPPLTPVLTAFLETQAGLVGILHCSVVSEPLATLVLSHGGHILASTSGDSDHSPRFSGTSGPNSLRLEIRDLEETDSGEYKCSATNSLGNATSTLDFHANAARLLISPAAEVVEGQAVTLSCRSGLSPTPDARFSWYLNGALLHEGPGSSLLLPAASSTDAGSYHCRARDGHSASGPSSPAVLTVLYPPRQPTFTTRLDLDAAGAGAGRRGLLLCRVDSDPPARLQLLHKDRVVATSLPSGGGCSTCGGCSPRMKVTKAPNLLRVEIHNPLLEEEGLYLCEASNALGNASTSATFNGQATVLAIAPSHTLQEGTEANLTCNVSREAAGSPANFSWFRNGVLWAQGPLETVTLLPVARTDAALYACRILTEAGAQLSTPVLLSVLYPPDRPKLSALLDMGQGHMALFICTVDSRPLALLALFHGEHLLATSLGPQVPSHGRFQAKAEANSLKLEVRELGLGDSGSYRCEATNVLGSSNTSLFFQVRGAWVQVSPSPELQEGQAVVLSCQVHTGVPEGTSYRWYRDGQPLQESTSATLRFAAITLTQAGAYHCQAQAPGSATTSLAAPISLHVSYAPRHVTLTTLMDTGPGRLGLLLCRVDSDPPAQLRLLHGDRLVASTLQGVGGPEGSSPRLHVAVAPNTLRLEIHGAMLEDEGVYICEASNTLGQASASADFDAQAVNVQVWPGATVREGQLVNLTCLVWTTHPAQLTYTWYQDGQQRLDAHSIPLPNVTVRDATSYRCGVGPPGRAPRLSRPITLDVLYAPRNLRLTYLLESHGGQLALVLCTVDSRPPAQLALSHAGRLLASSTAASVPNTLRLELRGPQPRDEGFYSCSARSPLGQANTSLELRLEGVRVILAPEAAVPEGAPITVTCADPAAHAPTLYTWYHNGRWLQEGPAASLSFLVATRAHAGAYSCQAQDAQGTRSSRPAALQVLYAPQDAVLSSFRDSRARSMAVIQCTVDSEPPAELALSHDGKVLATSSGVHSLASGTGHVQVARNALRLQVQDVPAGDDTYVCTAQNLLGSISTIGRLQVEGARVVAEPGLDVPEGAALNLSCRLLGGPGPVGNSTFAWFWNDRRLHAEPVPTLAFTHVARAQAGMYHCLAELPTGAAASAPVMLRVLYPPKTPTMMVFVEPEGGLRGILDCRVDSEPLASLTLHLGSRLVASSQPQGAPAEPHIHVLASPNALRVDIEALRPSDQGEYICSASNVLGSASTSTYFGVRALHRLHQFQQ

Binder | Percentage of Positive Cells [1] [%] | binding result [1] | Percentage of Positive Cells [2] [%] | binding result [2] | Percentage of Positive Cells [3] [%] | binding result [3] | Percentage of Positive Cells [4] [%] | binding result [4] | Percentage of Positive Cells [5] [%] | binding result [5] | Percentage of Positive Cells [6] [%] | binding result [6] | Percentage of Positive Cells [7] [%] | binding result [7]
anti-SIGLEC15 antibody 10A7 (antibody, human IgG1, V domains shown) VH: EVQLVQSGGGLVQPGGSLRLSCAASGFTFSNYEMNWVRQAPGKGLEWISYISNSGSTIYYADSVKGRFTISRDDAKNSLYLQMNSLRAEDTAVYYCAREDYDSSGYYWFDPWGQGTPVTVSS VL: DIQLTQSPSSVSASVGDRVTITCRASQGISSWLAWYQQKPGKAPKLLIYAASSLQSGVPSRFSGSGSGTDFTLTINSLQPEDFATYYCQQTNSFPLTFGGGTKVEIK | 0 | no binding | 0.2 | no binding | 0.2 | no binding | 0.1 | no binding | 1.4 | no binding | 0 | no binding | 0.1 | no binding
anti-SIGLEC15 antibody 10C9 (antibody, human IgG1, V domains shown) VH: QVQLVQSGAEVKKPGATVKVSCKASGYTFTNYGFSWVRQAPGQGLEWMGWINTYNDNTNYAQKFQGRVTMTTDTSTSTAYMELRSLRSDDTAVYYCARDGLWFGELPHYFDYWGQGTLVTVSS VL: DIQLTQSPLSSPVTLGQPASISCRSSQSLVNSDGETFLSWLQQRPGQPPRLLIYKISNRFSGVPDRFSGSGAGTDFTLKISRVEAEDVGVYYCMQATQFPHTFGQGTKLEIK | 0.1 | no binding | 0.2 | no binding | 0.4 | no binding | 0.3 | no binding | 1.5 | no binding | 0.1 | no binding | 0.2 | no binding
anti-SIGLEC15 antibody 23F4 (antibody, human IgG1, V domains shown) VH: QVQLQQWGAGLLKPSETLSLTCAVYGGSFSGYFWSWIRQPPGKGLEWIGEINHSGSTNYNPSLKSRVTLSVDTSKNQFSLKLSSVTAADTAVYYCAREGDSSSWGNWFDPWGQGTLVTVSS VL: EIVLTQSPGTLSLSPGERATLSCRASQSVSSSYLAWYQQKPGQAPRFLIYGASSRATGIPDRFSGSGSGTDFTLTISRLEPEDFAVYYCQQFGNSPLTFGGGTKVEIK | 1.1 | no binding | 7 | no binding | 1 | no binding | 0.6 | no binding | 1.6 | no binding | 0.4 | no binding | 1.3 | no binding
